Test results: patent publication US11541126B1, “Anti-ASGR1 antibody TLR8 agonist comprising conjugates and uses thereof” (Silverback Therapeutics, Inc., priority 2020, dated 2023)

The molecules below were run against T1, HepG2 cells (which express ASGR1) (Homo sapiens, UniProt P07306) (assay: Guava HepG2 cell binding screen of humanized anti-ASGR1 clones). Conditions: humanized G2D clones (Table 5); two numbers per cell, not explained.
T1 construct: endogenous in cells; host or cells: HepG2
T1 sequence (P07306 1-291): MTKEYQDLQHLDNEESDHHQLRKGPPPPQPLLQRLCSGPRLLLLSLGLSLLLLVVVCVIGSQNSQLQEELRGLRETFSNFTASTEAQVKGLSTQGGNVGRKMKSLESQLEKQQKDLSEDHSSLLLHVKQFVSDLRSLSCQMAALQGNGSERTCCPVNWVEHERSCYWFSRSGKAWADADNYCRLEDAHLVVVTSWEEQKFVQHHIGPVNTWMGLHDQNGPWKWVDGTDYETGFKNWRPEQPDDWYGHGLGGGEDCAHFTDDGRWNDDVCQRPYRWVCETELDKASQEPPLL
Set-up: unit not given here
Experimental: Hybridomas producing monoclonal antibodies (mAbs) specific for human ASGR1 were prepared from Balb/C mice immunized with ASGR1-AviHis at a service provider using their propriety protocol. Antibody heavy and light chain sequences were obtained, amplified, and cloned. Clone supernatants containing the expressed mAbs were screened for binding to a human ASGR1-IgG1Fc fusion protein, and those with a positive signal as measured by enzyme linked immunosorbent assay (ELISA) were screened for cell binding on HepG2 cells (which express ASGR1).

Row | Molecule | Guava HepG2 Screen
1 | hzG2D-30: humanized G2D clone; "G2D VL region ... of clones 22, 23, 30, 32, and 34-37 ... grafted into the human germline sequence VKI-O2 with JK4" (antibody, V domains shown, Synthetic sequence hzG2.49D VH R38K, R66K, V67A, T68S, I69L, R71V, A93T, R94S; Synthetic sequence hzG2D VLb) VH: QVQLVQSGAEVKKPGASVKVSCKASGYTFTGYYMHWVKQAPGQRLEWMGRINPNNGATNYNQNFKDKASLTVDTSASTAYMELSSLRSEDTAVYYCTSVNFYYWGQGTTVTVSS VL: DIQMTQSPSSLSASVGDRVTITCKASQVINSYLSWYQQKPGKAPKLLIYRANTLVDGVPSRFSGSGSGTDFTLTISSLQPEDFATYYCLQYAEFPYTFGGGTKVEIK | 198/115
2 | hzG2D-32: humanized G2D clone; "G2D VL region ... of clones 22, 23, 30, 32, and 34-37 ... grafted into the human germline sequence VKI-O2 with JK4" (antibody, V domains shown, Synthetic sequence hzG2.50D VH R66K, V67A, T68S, I69L, R71V, L82F, S82aH, A93T, R94S; Synthetic sequence hzG2D VLb) VH: QVQLVQSGAEVKKPGASVKVSCKASGYTFTGYYMHWVRQAPGQRLEWMGRINPNNGATNYNQNFKDKASLTVDTSASTAYMEFHSLRSEDTAVYYCTSVNFYYWGQGTTVTVSS VL: DIQMTQSPSSLSASVGDRVTITCKASQVINSYLSWYQQKPGKAPKLLIYRANTLVDGVPSRFSGSGSGTDFTLTISSLQPEDFATYYCLQYAEFPYTFGGGTKVEIK | 167/103
3 | hzG2D-1: humanized G2D clone; "G2D VL region ... of clones 1-16, 19-21, 26-29, 31, and 33 ... grafted into the human germline sequence VKI-L1 with JK4" (antibody, V domains shown, Synthetic sequence hzG2D VH V109L; Synthetic sequence hzG2D VLa) VH: QVQLVQSGAEVKKPGASVKVSCKASGYTFTGYYMHWVRQAPGQRLEWMGRINPNNGATNYNQNFKDRVTITRDTSASTAYMELSSLRSEDTAVYYCARVNFYYWGQGTTLTVSS VL: DIQMTQSPSSLSASVGDRVTITCKASQVINSYLSWFQQKPGKAPKSLIYRANTLVDGVPSRFSGSGSGTDFTLTISSLQPEDFATYYCLQYAEFPYTFGGGTKVEIK | 32/19
4 | hzG2D-31: humanized G2D clone; "G2D VL region ... of clones 1-16, 19-21, 26-29, 31, and 33 ... grafted into the human germline sequence VKI-L1 with JK4" (antibody, V domains shown, Synthetic sequence hzG2.50D VH R66K, V67A, T68S, I69L, R71V, L82F, S82aH, A93T, R94S; Synthetic sequence hzG2D VLa) VH: QVQLVQSGAEVKKPGASVKVSCKASGYTFTGYYMHWVRQAPGQRLEWMGRINPNNGATNYNQNFKDKASLTVDTSASTAYMEFHSLRSEDTAVYYCTSVNFYYWGQGTTVTVSS VL: DIQMTQSPSSLSASVGDRVTITCKASQVINSYLSWFQQKPGKAPKSLIYRANTLVDGVPSRFSGSGSGTDFTLTISSLQPEDFATYYCLQYAEFPYTFGGGTKVEIK | 168/95
